Details: Homo sapiens; pH 7.8; Thermal; DSC; Potassium phosphate 20 mM; reversible: yes; whole UniProt chain shown

B1: Superoxide dismutase [Mn], mitochondrial wild type, P04179 (protein)
chain: MLSRAVCGTSRQLAPVLGYLGSRQKHSLPDLPYDYGALEPHINAQIMQLHHSKHHAAYVNNLNVTEEKYQEALAKGDVTAQIALQPALKFNGGGHINHSIFWTNLSPNGGGEPKGELLEAIKRDFGSFDKFKEKLTAASVGVQGSGWGWLGFNKERGHLQIAACPNQDPLQGTTGLIPLLGIDVWEHAYYLQYKNVRPDYLKAIWNVINWENVTERYMACKK
In the case of B1, the Tm is reported as 88.9 °C.
